Reference: the supplement of paper PMC5998384

Experiments:
HeLa Kyoto [1] = assay: solubility in G1/S (NP-40 vs SDS abundance) (log2 ratio); higher = more soluble; conditions: cell cycle stage: G1/S
HeLa Kyoto [2] = assay: solubility change mitosis vs G1/S (difference of NP-40 vs SDS log2 ratios) (log2 ratio difference); higher = more soluble in mitosis
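Throughout, for solubility change mitosis vs G1/S (difference of NP-40 vs SDS log2 ratios): synchronized HeLa Kyoto cells (double thymidine block for G1/S, nocodazole release for mitosis), protein amounts in NP-40 versus SDS lysates quantified by mass spectrometry, three biological replicates.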
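Throughout, for solubility in G1/S (NP-40 vs SDS abundance): HeLa Kyoto cells arrested at G1/S by double thymidine block, proteins quantified by TMT10plex mass spectrometry in mild NP-40 versus SDS extracts, three biological replicates.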

| Substance | solubility in G1/S (log2) (HeLa Kyoto [1]) | solubility change mitosis (log2) (HeLa Kyoto [2]) |
| --- | --- | --- |
| MMSEHDLADVVQIAVEDLSPDHPVVLENHVVTDEDEPALKRQRLEINCQDPSIKTICLRLDSIEAKLQALEATCKSLEEKLDLVTNKQHSPIQVPMVAGSPLGATQTCNKVRCVVPQTTVILNNDRQNAIVAKMEDPLSNRAPDSLENVISNAVPGRRQNTIVVKVPGQEDSHHEDGESGSEASDSVSSCGQAGSQSIGSNVTLITLNSEEDYPNGTWLGDENNPEMRVRCAIIPSDMLHISTNCRTAEKMALTLLDYLFHREVQAVSNLSGQGKHGKKQLDPLTIYGIRCHLFYKFGITESDWYRIKQSIDSKCRTAWRRKQRGQSLAVKSFSRRTPNSSSYCPSEPMMSTPPPASELPQPQPQPQALHYALANAQQVQIHQIGEDGQVQVGHLHIAQVPQGEQVQITQDSEGNLQIHHVGQDGQLLEATRIPCLLAPSVFKASSGQVLQGAQLIAVASSDPAAAGVDGSPLQGSDIQVQYVQLAPVSDHTAGAQTAEALQPTLQPEMQLEHGAIQIQ [BANP] | 0.417 | 0.0132 |
| MSAAGAGAGVEAGFSSEELLSLRFPLHRACRDGDLATLCSLLQQTPHAHLASEDSFYGWTPVHWAAHFGKLECLVQLVRAGATLNVSTTRYAQTPAHIAAFGGHPQCLVWLIQAGANINKPDCEGETPIHKAARSGSLECISALVANGAHVDLRNASGLTAADIAQTQGFQECAQFLLNLQNCHLNHFYNNGILNGGHQNVFPNHISVGTNRKRCLEDSEDFGVKKARTEAQSLDSAVPLTNGDTEDDADKMHVDREFAVVTDMKNSSSVSNTLTNGCVINGHLDFPSTTPLSGMESRNGQCLTGTNGISSGLAPGQPFPSSQGSLCISGTEEPEKTLRANPELCGSLHLNGSPSSCIASRPSWVEDIGDNLYYGHYHGFGDTAESIPELNSVVEHSKSVKVQERYDSAVLGTMHLHHGS [ANKRD10] | 0.0215 | 0.112 |
| MAEGPEEARGHPPGQDDGGGDHEPVPSLRGPPTTAVPCPRDDPQAEPQAPGRPTAPGLAAAAAADKLEPPRELRKRGEAASGSGAELQEQAGCEAPEAAAPRERPARLSAREYSRQVHEWLWQSYCGYLTWHSGLAAFPAYCSPQPSPQSFPSGGAAVPQAAAPPPPQLGYYNPFYFLSPGAAGPDPRTAAGISTPAPVAGLGPRAPHVQASVRATPVTRVGSAAPSRSPSETGRQAGREYVIPSLAHRFMAEMVDFFILFFIKATIVLSIMHLSGIKDISKFAMHYIIEEIDEDTSMEDLQKMMVVALIYRLLVCFYEIICIWGAGGATPGKFLLGLRVVTCDTSVLIAPSRVLVIPSSNVSITTSTIRALIKNFSIASFFPAFITLLFFQHNRTAYDIVAGTIVVKRNGVR [FAM8A1] | -0.0476 | 0.0402 |
| MDPGWGQRDVGWAALLILFAASLLTVFAWLLQYARGLWLARARGDRGPGPALAGEPAGSLRELGVWRSLLRLRATRAGAAEEPGVRGLLASLFAFKSFRENWQRAWVRALNEQACRNGSSIQIAFEEVPQLPPRASISHVTCVDQSEHTMVLRCQLSAEEVRFPVSVTQQSPAAVSMETYHVTLTLPPTQLEVNLEEIPGEGLLISWAFTDRPDLSLTVLPKLQARERGEEQVELSTIEELIKDAIVSTQPAMMVNLRACSAPGGLVPSEKPPMMPQAQPAIPRPNRLFLRQLRASHLGNELEGTEELCCVAELDNPMQQKWTKPARAGSEVEWTEDLALDLGPQSRELTLKVLRSSSCGDTELLGQATLPVGSPSRPLSRRQLCPLTPGPGKALGPAATMAVELHYEEGSPRNLGTPTSSTPRPSITPTKKIELDRTIMPDGTIVTTVTTVQSRPRIDGKLDSPSRSPSKVEVTEKTTTVLSESSGPSNTSHSSSRDSHLSNGLDPVAETAIRQLTEPSGRVAKKTPTKRSTLIISGVSKVPIAQDELALSLGYAASLEASVQDDAGTSGGPSSPPSDPPAMSPGPLDALSSPTSVQEADETTRSDISERPSVDDIESETGSTGALETRSLKDHKVSFLRSGTKLIFRRRPRQKEAGLSQSHDDLSNATATPSVRKKAGSFSRRLIKRFSFKSKPKANGNPSPQL [C2CD2L] | -0.0395 | -0.0722 |
| MAALAEEQTEVAVKLEPEGPPTLLPPQAGDGAGEGSGGTTNNGPNGGGGNVAASSSTGGDGGTPKPTVAVSAAAPAGAAPVPAAAPDAGAPHDRQTLLAVLQFLRQSKLREAEEALRREAGLLEEAVAGSGAPGEVDSAGAEVTSALLSRVTASAPGPAAPDPPGTGASGATVVSGSASGPAAPGKVGSVAVEDQPDVSAVLSAYNQQGDPTMYEEYYSGLKHFIECSLDCHRAELSQLFYPLFVHMYLELVYNQHENEAKSFFEKFHGDQECYYQDDLRVLSSLTKKEHMKGNETMLDFRTSKFVLRISRDSYQLLKRHLQEKQNNQIWNIVQEHLYIDIFDGMPRSKQQIDAMVGSLAGEAKREANKSKVFFGLLKEPEIEVPLDDEDEEGENEEGKPKKKKPKKDSIGSKSKKQDPNAPPQNRIPLPELKDSDKLDKIMNMKETTKRVRLGPDCLPSICFYTFLNAYQGLTAVDVTDDSSLIAGGFADSTVRVWSVTPKKLRSVKQASDLSLIDKESDDVLERIMDEKTASELKILYGHSGPVYGASFSPDRNYLLSSSEDGTVRLWSLQTFTCLVGYKGHNYPVWDTQFSPYGYYFVSGGHDRVARLWATDHYQPLRIFAGHLADVNCTRFHPNSNYVATGSADRTVRLWDVLNGNCVRIFTGHKGPIHSLTFSPNGRFLATGATDGRVLLWDIGHGLMVGELKGHTDTVCSLRFSRDGEILASGSMDNTVRLWDAIKAFEDLETDDFTTATGHINLPENSQELLLGTYMTKSTPVVHLHFTRRNLVLAAGAYSPQ [TAF5] | -0.0963 | 0.00763 |
| MPVHSRGDKKETNHHDEMEVDYAENEGSSSEDEDTESSSVSEDGDSSEMDDEDCERRRMECLDEMSNLEKQFTDLKDQLYKERLSQVDAKLQEVIAGKAPEYLEPLATLQENMQIRTKVAGIYRELCLESVKNKYECEIQASRQHCESEKLLLYDTVQSELEEKIRRLEEDRHSIDITSELWNDELQSRKKRKDPFSPDKKKPVVVSGPYIVYMLQDLDILEDWTTIRKAMATLGPHRVKTEPPVKLEKHLHSARSEEGRLYYDGEWYIRGQTICIDKKDECPTSAVITTINHDEVWFKRPDGSKSKLYISQLQKGKYSIKHS [BRMS1L] | -0.0165 | -0.0561 |
| MENLPAVTTEEPTPMGRGPVGPSGGGSTRDQVRTVVMRPSVSWEKAGPEEAKAPVRGDEAPPARVAGPAAGTPPCQMGVYPTDLTLQLLAVRRKSRLRDPGLQQTLRGQLRLLENDSREMARVLGELSARLLSIHSDQDRIVVTFKTFEEIWKFSTYHALGFTHHCLANLLMDQAFWLLLPSEEEETAIQVHVDENALRLTHESLLIQEGPFFVLCPDHHVRVMTGPRDAGNGPQALRQASGAPQGEAAPETDSSPPSPSVSSEEVAVAAAPEPLIPFHQWALRIPQDPIDDAMGGPVMPGNPLMAVGLASALADFQGSGPEEMTFRGGDLIEILGAQVPSLPWCVGRHAASGRVGFVRSSLISMQGPVSELESAIFLNEEEKSFFSEGCFSEEDARQLLRRMSGTDVCSVYSLDSVEEAETEQPQEKEIPPPCLSLEPQETLQKVKNVLEQCKTCPGCPQEPASWGLCAASSDVSLQDPEEPSFCLEAEDDWEDPEALSSLLLFLNAPGYKASFRGLYDVALPWLSSVFRSFSDEEELTGRLAQARGAAKKAGLLMALARLCFLLGRLCSRRLKLSQARVYFEEALGALEGSFGDLFLVVAVYANLASIYRKQKNREKCAQVVPKAMALLLGTPDHICSTEAEGELLQLALRRAVGGQSLQAEARACFLLARHHVHLKQPEEALPFLERLLLLHRDSGAPEAAWLSDCYLLLADIYSRKCLPHLVLSCVKVASLRTRGSLAGSLRSVNLVLQNAPQPHSLPAQTSHYLRQALASLTPGTGQALRGPLYTSLAQLYSHHGCHGPAITFMTQAVEASAIAGVRAIVDHLVALAWLHVLHGQSPVALDILQSVRDAVVASEDQEGVIANMVAVALKRTGRTRQAAESYYRALRVARDLGQQRNQAVGLANFGALCLHAGASRLAQHYLLEAVRLFSRLPLGECGRDFTHVLLQLGHLCTRQGPAQQGKGYYEWALLVAVEMGHVESQLRAVQRLCHFYSAVMPSEAQCVIYHELQLSLACKVADKVLEGQLLETISQLYLSLGTERAYKSALDYTKRSLGIFIDLQKKEKEAHAWLQAGKIYYILRQSELVDLYIQVAQNVALYTGDPNLGLELFEAAGDIFFDGAWEREKAVSFYRDRALPLAVTTGNRKAELRLCNKLVALLATLEEPQEGLEFAHMALALSITLGDRLNERVAYHRLAALQHRLGHGELAEHFYLKALSLCNSPLEFDEETLYYVKVYLVLGDIIFYDLKDPFDAAGYYQLALAAAVDLGNKKAQLKIYTRLATIYHNFLLDREKSLFFYQKARTFATELNVRRVNLPPLPLCGWAPWLAPSHPR [SH3TC1] | -0.47 | 0.0532 |
| MNSSSANITYASRKRRKPVQKTVKPIPAEGIKSNPSKRHRDRLNTELDRLASLLPFPQDVINKLDKLSVLRLSVSYLRAKSFFDVALKSSPTERNGGQDNCRAANFREGLNLQEGEFLLQALNGFVLVVTTDALVFYASSTIQDYLGFQQSDVIHQSVYELIHTEDRAEFQRQLHWALNPSQCTESGQGIEEATGLPQTVVCYNPDQIPPENSPLMERCFICRLRCLLDNSSGFLAMNFQGKLKYLHGQKKKGKDGSILPPQLALFAIATPLQPPSILEIRTKNFIFRTKHKLDFTPIGCDAKGRIVLGYTEAELCTRGSGYQFIHAADMLYCAESHIRMIKTGESGMIVFRLLTKNNRWTWVQSNARLLYKNGRPDYIIVTQRPLTDEEGTEHLRKRNTKLPFMFTTGEAVLYEATNPFPAIMDPLPLRTKNGTSGKDSATTSTLSKDSLNPSSLLAAMMQQDESIYLYPASSTSSTAPFENNFFNESMNECRNWQDNTAPMGNDTILKHEQIDQPQDVNSFAGGHPGLFQDSKNSDLYSIMKNLGIDFEDIRHMQNEKFFRNDFSGEVDFRDIDLTDEILTYVQDSLSKSPFIPSDYQQQQSLALNSSCMVQEHLHLEQQQQHHQKQVVVEPQQQLCQKMKHMQVNGMFENWNSNQFVPFNCPQQDPQQYNVFTDLHGISQEFPYKSEMDSMPYTQNFISCNQPVLPQHSKCTELDYPMGSFEPSPYPTTSSLEDFVTCLQLPENQKHGLNPQSAIITPQTCYAGAVSMYQCQPEPQHTHVGQMQYNPVLPGQQAFLNKFQNGVLNETYPAELNNINNTQTTTHLQPLHHPSEARPFPDLTSSGFL [AHR] | -0.135 | -0.105 |
| CEP350 | 0.00287 | 0.0106 |
| MGKVLSKIFGNKEMRILMLGLDAAGKTTILYKLKLGQSVTTIPTVGFNVETVTYKNVKFNVWDVGGQDKIRPLWRHYYTGTQGLIFVVDCADRDRIDEARQELHRIINDREMRDAIILIFANKQDLPDAMKPHEIQEKLGLTRIRDRNWYVQPSCATSGDGLYEGLTWLTSNYKS [ARF6] | 0.0719 | 0.0647 |
| ANKRD11 | -0.497 | 0.268 |
